{"source": "paper PMC6281582", "target": "FOXO3a (UniProt O43524)", "assay": "IP of FOXO3a, anti-Flag blot for SirT6", "settings": "reference: WT-SirT6; sites S338", "data": [{"substance": "SirT6 (from UniProt Q8N6T7) S338A", "values": [{"measurement": "binding against the reference", "result": "lost"}]}]}
